# Data: publication PMC4441004, “Functional Characterization and Categorization of Missense Mutations that Cause Methylmalonyl‐CoA Mutase (MUT) Deficiency” (Human Mutation, 2014)
# Where a chain is given by its changes, count along the chain named.
# B1: MUT p.F573S (enzyme, human)
# chain: LHQQQPLHPEWAALAKKQLKGKNPEDLIWHTPEGISIKPLYSKRDTMDLPEELPGVKPFTRGPYPTMYTFRPWTIRQYAGFSTVEESNKFYKDNIKAGQQGLSVAFDLATHRGYDSDNPRVRGDVGMAGVAIDTVEDTKILFDGIPLEKMSVSMTMNGAVIPVLANFIVTGEEQGVPKEKLTGTIQNDILKEFMVRNTYIFPPEPSMKIIADIFEYTAKHMPKFNSISISGYHMQEAGADAILELAYTLADGLEYSRTGLQAGLTIDEFAPRLSFFWGIGMNFYMEIAKMRAGRRLWAHLIEKMFQPKNSKSLLLRAHCQTSGWSLTEQDPYNNIVRTAIEAMAAVFGGTQSLHTNSFDEALGLPTVKSARIARNTQIIIQEESGIPKVADPWGGSYMMECLTNDVYDAALKLINEIEEMGGMAKAVAEGIPKLRIEECAARRQARIDSGSEVIVGVNKYQLEKEDAVEVLAIDNTSVRNRQIEKLKKIKSSRDQALAERCLAALTECAASGDGNILALAVDASRARCTVGEITDALKKVSGEHKANDRMVSGAYRQEFGESKEITSAIKRVHKFMEREGRRPRLLVAKMGQDGHDRGAKVIATGFADLGFDVDIGPLFQTPREVAQQAVDADVHAVGISTLAAGHKTLVPELIKELNSLGRPDILVMCGGVIPPQDYEFLFEVGVSNVFGPGTRIPKAAVQVLDDIEKCLEKKQQSV
# notes: methylmalonyl-CoA mutase (MUT), human; construct 'hMUT' of Froese et al., 2010b with a patient missense mutation; Same construct limits as m1 (see its note); source: E. coli, purified (Ni-NTA, Superdex 200, TEV cleavage, reverse Ni-NTA)
# B2: MUT p.G717V (enzyme, human)
# chain: B1 chain with S541F, G685V
# notes: as for B1
# B3: MUT p.M700K (enzyme, human)
# chain: B1 chain with S541F, M668K
# notes: as for B1
# B4: MUT p.R694W (enzyme, human)
# chain: B1 chain with S541F, R662W
# notes: as for B1
# B5: MUT p.N366S (enzyme, human)
# chain: B1 chain with N334S, S541F
# notes: as for B1
# B6: MUT p.Q218H (enzyme, human)
# chain: B1 chain with Q186H, S541F
# notes: as for B1
# B7: MUT p.R369H (enzyme, human)
# chain: B1 chain with R337H, S541F
# notes: as for B1
# B8: MUT p.G648D (enzyme, human)
# chain: B1 chain with S541F, G616D
# notes: as for B1
# B9: MUT p.V633G (enzyme, human)
# chain: B1 chain with S541F, V601G
# notes: as for B1
# B10: MUT p.Y100C (enzyme, human)
# chain: B1 chain with Y68C, S541F
# notes: as for B1
# B11: MUT p.Y231N (enzyme, human)
# chain: B1 chain with Y199N, S541F
# notes: as for B1
# B12: MUT p.P86L (enzyme, human)
# chain: B1 chain with P54L, S541F
# notes: as for B1
# B13: MUT p.T387I (enzyme, human)
# chain: B1 chain with T355I, S541F
# notes: as for B1
# B14: MUT p.G426R (enzyme, human)
# chain: B1 chain with G394R, S541F
# notes: as for B1
# B15: MUT p.R694L (enzyme, human)
# chain: B1 chain with S541F, R662L
# notes: as for B1
# Target: the molecule itself
# Test: SEC; Superdex 200 in the large-scale purification from E. coli; retention volumes of the mutants compared with wt MUT; data not shown
row,Protein,stoichiometry N
1,B1,2
2,B2,2
3,B3,2
4,B4,2
5,B5,2
6,B6,2
7,B7,2
8,B8,2
9,B9,2
10,B10,2
11,B11,2
12,B12,2
13,B13,2
14,B14,2
15,B15,2
